Test results as given in US20170342144A1 (Sanofi, published 2017).
Substitutions are numbered along the chain they refer to. In names and notes the source's numbering stands.

Assays:
human TGFβ1 [1] = target: T1, human TGFβ1 (human, UniProt P01137 279-390); experiment: cell-based or functional assay
T1 construct: also called TGFβ1 homodimer

human TGFβ1 [2] = target: T1, human TGFβ1; experiment: SPR (Biacore 3000), TGFβ1 amine-coupled to the chip, GC1008 IgG as analyte, 1:1 model, average of more than 25 assays
Description: (§1) Additionally, the TGFβ isoform binding affinity of the GC1008 antibody was measured using a Biacore® 3000 (GE Healthcare) instrument. TGFβ1 and TGFβ2, produced in-house, were diluted to ˜1 μg/mL in 10 mM acetate, pH 4.5, and TGFβ3 (R&D Systems) was diluted to ˜2 μg/mL in 10 mM acetate, pH 4.0. Flowcells 2, 3, and 4 of a CMS sensor chip were covalently immobilized with 50 to 100 RU of TGFβ1, TGFβ2, and TGFβ3, respectively, using the standard amine coupling kit from GE Healthcare. Flowcell 1 was used as a control surface. […] The surface was regenerated with two 30 sec injections of 40 mM HCl at 75 μL/min. The sensorgrams were fit using a 1:1 binding model after subtraction of buffer and control flowcell refractive index changes with the BIA Evaluation Software Kit (GE Healthcare). The KD's shown in TABLE 6 are an average of more than 25 independent assays.

human TGFβ2 [3] = target: T2, human TGFβ2 (human, UniProt P61812 303-414); experiment: SPR (Biacore 3000), TGFβ2 amine-coupled to the chip, GC1008 IgG as analyte, 1:1 model, average of more than 25 assays
T2 construct: also called TGFβ2 homodimer
T2 sequence: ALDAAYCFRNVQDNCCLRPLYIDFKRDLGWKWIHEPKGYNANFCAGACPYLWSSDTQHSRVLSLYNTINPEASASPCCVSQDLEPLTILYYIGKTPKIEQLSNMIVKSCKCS
Description: as §1

human TGFβ3 [4] = target: T3, human TGFβ3 (human, UniProt P10600 301-412); experiment: SPR (Biacore 3000), TGFβ3 amine-coupled to the chip, GC1008 IgG as analyte, 1:1 model, average of more than 25 assays
T3 sequence: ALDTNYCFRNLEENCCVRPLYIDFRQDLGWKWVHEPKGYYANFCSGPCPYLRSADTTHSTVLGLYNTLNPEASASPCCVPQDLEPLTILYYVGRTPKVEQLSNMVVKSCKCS
Description: as §1

human TGFβ1 [5] = target: T1, human TGFβ1; experiment: Biacore, immobilised TGFβ
human TGFβ2 [6] = target: T2, human TGFβ2; experiment: Biacore, immobilised TGFβ
human TGFβ3 [7] = target: T3, human TGFβ3; experiment: Biacore, immobilised TGFβ
human TGFβ1 [8] = target: T1, human TGFβ1; experiment: Biacore off-rate vs wt GC1008
Description: (§2) Plasmids encoding either the GC1008 heavy chain or light chain were used as a template in PCR-based mutagenesis reactions. Mutations to the encoding DNA were made to create 155 single amino acid substitutions of the encoded heavy chain amino acid sequence and one single amino acid substitution of the encoded light chain amino acid sequence. A QuikChange® Lightning Site-Directed Mutagenesis kit (Agilent Technologies, Santa Clara Calif.) was used according to the manufacturer's instructions to create DNA mutations using a set of forward and reverse primers, either designed for a specific amino acid or for all 20 amino acids with a degenerate codon (NNK). After sequencing confirmation, identified mutant DNA was paired with a wild-type light or heavy chain DNA for transfection into an Expi293F™ host cell suspension (Life Techonologies Corp., Grand Island, N.Y.). At 4 days post-transfection, conditioned media (1 mL) was harvested and purified using a 1 mL Protein A PhyTip® column (PhyNexus, Inc., San Jose, Calif.) and a PureSpeed™ 12-channel pipette (Rainin Instrument LLC, Oakland, Calif.). Purified variant antibody samples were analyzed in duplicate on a Biacore® 3000 (GE Healthcare) at 50 nM concentrations, using the 100 RU level TGFβ1, 2, and 3 immobilized surfaces. The off-rate (kd) of the variants was divided by the kd of the wild-type control to obtain the fold change in the kd. […] A heat map was generated to visualize the results. Variants that completely lost affinity for TGFβ were shown in red without numbers.

human TGFβ2 [9] = target: T2, human TGFβ2; experiment: Biacore off-rate vs wt GC1008
Description: as §2

human TGFβ3 [10] = target: T3, human TGFβ3; experiment: Biacore off-rate vs wt GC1008
Description: as §2

human TGFβ1 [11] = target: T1, human TGFβ1; experiment: Biacore off-rate vs wt GC1008, 50 nM
Method in brief: (§3)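 Surface plasmon resonance on a Biacore 3000 measured how fast purified antibody variants dissociated from TGFβ isoforms immobilized at about 100 RU. Variants carried single heavy- or light-chain substitutions and were produced by transient Expi293F transfection with Protein A cleanup. Samples at 50 nM were tested in duplicate, and each variant kd was divided by the wild-type control kd to give fold change.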

human TGFβ2 [12] = target: T2, human TGFβ2; experiment: Biacore off-rate vs wt GC1008, 50 nM
Method in brief: as §3

human TGFβ3 [13] = target: T3, human TGFβ3; experiment: Biacore off-rate vs wt GC1008, 50 nM
Method in brief: as §3

human TGFβ1 [14] = target: T1, human TGFβ1; experiment: Biacore, top 2 concentrations only (90, 30 nM), 1:1 global fit, vs wt GC1008
Description: (§4) In FIG. 6C, seventeen mutants were selected and scaled up to produce sufficient amount of purified protein for KD (equilibrium constant=kd/ka) analysis by Biacore. Multiple concentrations (90, 30, 10 and 3.33 nM) were used in duplicate on the 150 RU level TGFβ1, 2, and 3 immobilized surfaces. KD was calculated using global curve fitting analysis for a 1-to-1 Langmuir binding model. The experimental data from all four concentrations were used for calculation except for I54N and I54R mutants, where only the top 2 concentrations were used. The fold changes in KD were compared to the fold changes in kd (off rate) presented in FIG. 6B, and a heat map was generated for visualization. Similar fold changes were observed from the two data sets, confirming the validity of using kd as a parameter for screening of 155 single mutants as shown in FIG. 6B.

human TGFβ2 [15] = target: T2, human TGFβ2; experiment: as above
Description: as §4

human TGFβ3 [16] = target: T3, human TGFβ3; experiment: as above
Description: as §4

T1 sequence (P01137 279-390 limits assumed): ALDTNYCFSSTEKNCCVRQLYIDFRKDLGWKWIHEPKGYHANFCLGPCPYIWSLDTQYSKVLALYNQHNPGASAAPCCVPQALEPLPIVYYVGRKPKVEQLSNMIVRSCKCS

1D11.16 (antibody) was tested. Which % neutralization in MLEC proliferation assay at 91 pM antibody (human TGFβ1 [1]) did it give?
The % neutralization in MLEC proliferation assay at 91 pM antibody was 12%.

B1: GC1008 (antibody, human IgG4, V domains shown)
VH: QVQLVQSGAEVKKPGSSVKVSCKASGYTFSSNVISWVRQAPGQGLEWMGGVIPIVDIANYAQRFKGRVTITADESTSTTYMELSSLRSEDTAVYYCASTLGLVLDAMDYWGQGTLVTVSS
VL: ETVLTQSPGTLSLSPGERATLSCRASQSLGSSYLAWYQQKPGQAPRLLIYGASSRAPGIPDRFSGSGSGTDFTLTISRLEPEDFAVYYCQQYADSPITFGQGTRLEIK
notes: also called GC1008 antibody; wild-type control
How did the Kd (human TGFβ1 [2]) turn out when B1 was run?
Its Kd is 1.7 nM.

What about the Kd (human TGFβ2 [3]) of the same molecule?
Its Kd is 3 nM.

What about the Kd (human TGFβ3 [4]) of the same molecule?
The Kd was 2 nM.

B2: A93R(LC) (antibody, V domains shown)
VH: B1 VH
VL: B1 VL with A93R
notes: GC1008 IgG4 variant, light chain substitution
What does the source list for B2?
binding result (human TGFβ1 [5]): no binding (tested: 50 nM); binding result (human TGFβ2 [6]): no binding (tested: 50 nM); binding result (human TGFβ3 [7]): no binding (tested: 50 nM)

B3: I54N (antibody, V domains shown)
VH: B1 VH with I54N
VL: B1 VL
notes: GC1008 IgG4 variant
What does the source list for B3?
kd mutant/kd wt (human TGFβ1 [8]): 4.9; kd mutant/kd wt (human TGFβ2 [9]): 2.4; kd mutant/kd wt (human TGFβ3 [10]): 4.3; kd var/kd wt (human TGFβ1 [11]): 4.9; kd var/kd wt (human TGFβ2 [12]): 2.4; kd var/kd wt (human TGFβ3 [13]): 4.3; KD mutant/KD wt (human TGFβ1 [14]): 7; KD mutant/KD wt (human TGFβ2 [15]): 4.5; KD mutant/KD wt (human TGFβ3 [16]): 13.1

B4: I54R (antibody, V domains shown)
VH: B1 VH with I54R
VL: B1 VL
notes: GC1008 IgG4 variant
What does the source list for B4?
kd mutant/kd wt (human TGFβ1 [8]): 7.6; kd mutant/kd wt (human TGFβ2 [9]): 5.2; kd mutant/kd wt (human TGFβ3 [10]): 4.8; kd var/kd wt (human TGFβ1 [11]): 7.6; kd var/kd wt (human TGFβ2 [12]): 5.2; kd var/kd wt (human TGFβ3 [13]): 4.8; KD mutant/KD wt (human TGFβ1 [14]): 11; KD mutant/KD wt (human TGFβ2 [15]): 5.3; KD mutant/KD wt (human TGFβ3 [16]): 11.4

B5: L104K (antibody, V domains shown)
VH: B1 VH with L104K
VL: B1 VL
notes: GC1008 IgG4 variant
Does B5 bind (human TGFβ1 [5])?
Result: no binding (tested: 50 nM)

Does B5 bind (human TGFβ2 [6])?
Result: no binding (tested: 50 nM)

Does B5 bind (human TGFβ3 [7])?
Result: no binding (tested: 50 nM)

B6: L104R (antibody, V domains shown)
VH: B1 VH with L104R
VL: B1 VL
notes: GC1008 IgG4 variant
Which results are given for B6?
binding result (human TGFβ1 [5]): no binding (tested: 50 nM); binding result (human TGFβ2 [6]): no binding (tested: 50 nM); binding result (human TGFβ3 [7]): no binding (tested: 50 nM)

B7: V103R (antibody, V domains shown)
VH: B1 VH with V103R
VL: B1 VL
notes: GC1008 IgG4 variant
Does B7 bind (human TGFβ1 [5])?
Result: no binding (tested: 50 nM)

Does B7 bind (human TGFβ2 [6])?
Result: no binding (tested: 50 nM)

Does B7 bind (human TGFβ3 [7])?
Result: no binding (tested: 50 nM)
